Source: patent US20240150490A1

What was measured:
[1] = target: CA IX expressed by cells (C-33a_CA IX transfectants; hypoxic BT-20, JIMT-1, 8-MG-BA and 42-MG-BA cells) (human) (UniProt Q16790); assay: flow cytometry, M75 1 ug/ml and Alexa 488 secondary antibody, hypoxic BT-20 cells
[2] = target: CA IX expressed by cells (C-33a_CA IX transfectants; hypoxic BT-20, JIMT-1, 8-MG-BA and 42-MG-BA cells) (human) (UniProt Q16790); assay: flow cytometry, M75 1 ug/ml and Alexa 488 secondary antibody, hypoxic JIMT-1 cells

- median signal level of CA IX-staining [1]: 108
- median signal level of CA IX-staining [2]: 86.8
Substance: mouse monoclonal antibody M75
